Source: US20190233528A1 (published 2019)
Each block holds one binder with its values, some of them ahead of it.

Target: T1, recombinant human CD70 (AviTag, polyhistidine tag and chicken tenascin trimerization domain fused to the … (chicken; human, UniProt P10039 110-139, limits assumed)
T1 construct: domain: trimerization domain; Expressed in Expi293, purified by IMAC and SEC; Copies 3 is inferred from the trimerization domain; not shown: AviTag; polyhistidine tag
T1 sequence: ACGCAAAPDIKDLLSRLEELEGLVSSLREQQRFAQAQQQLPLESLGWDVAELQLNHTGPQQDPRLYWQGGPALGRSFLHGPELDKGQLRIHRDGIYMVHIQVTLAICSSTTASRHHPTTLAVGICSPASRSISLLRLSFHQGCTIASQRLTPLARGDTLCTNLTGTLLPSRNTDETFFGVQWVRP
Assay: SPR (Biacore 8K, 37 C): CD70 captured via anti-AviTag antibody on C1 chip, scFv-Fc as analyte; 1:1 Langmuir fit
Procedure: The antibody binding kinetics were determined by surface plasmon resonance (Biacore 8K, GE Healthcare Bio-Sciences, Pittsburgh Pa.) at 37° C. in HBS-T+ (0.01 M HEPES pH 7.4, 0.15 M NaCl, 0.05% v/v Tween20, 1 mg/mL BSA). Recombinant human CD70 diluted in HBS-T+ was captured on a C1 chip immobilized with an anti-AviTag™ antibody. Purified anti-CD70 scFv-Fc fusions were serially diluted into HBS-T+, injected at 30 uL/min for 2-4 min, dissociation monitored for 10 min then the surface regenerated with 75 mM phosphoric acid between injections. Buffer cycles were collected for each anti-CD70 scFv-Fc fusion for double-referencing purposes (double-referencing as described in Myszka, D. G. Improving biosensor analysis. J. Mol. Recognit. 12, 279-284 (1999)). Kinetic association rates (kₒₙ) and dissociation rates (koff) were obtained simultaneously by fitting the double-referenced sensorgrams globally to a 1:1 Langmuir with mass transport model using Biacore 8K Evaluation Software (GE Healthcare Bio-Sciences, Pittsburgh Pa.) then used to calculate an equilibrium dissociation constant (KD) from the kinetic rate constants (KD=koff/kₒₙ). The data was fit to a 1:1 steady state affinity model using Biacore 8K Evaluation Software to determine a steady state equilibrium dissociation constant (SS KD) as needed.

B1: P15D02 anti-CD70 scFv-Fc fusion (Fc fusion)
chain: EVQLVQSGAEVKKPGESLKISCKGSGYSFASYWIGWVRQMPGKGLEWMGVIYPGTSETRYSPSFQGQVTISADKSISTAYLQWSSLKASDTAMYYCAKGLSASASGYSFQYWGQGTLVTVSSGGGGSGGGGSGGGGSGGGGSELDIQMTQSPSSLSASVGDRVTITCRASQSIDTYLNWYQQKPGKAPKLLIYSASSLHSGVPSRFSGSGSGTDFTLTISSLQPEDFATYYCQQSYSTTAWTFGQGTKVEIK
notes: scFv-Fc expressed in Expi293; not shown: part of the hinge and Fc from a modified human IgG2
- Kd: < 0.3 nM
- koff: < 8.05e-05 s⁻¹
- kon: 286000 M⁻¹ s⁻¹
- t1/2: > 136 min

B2: 12D6 anti-CD70 scFv-Fc fusion (Fc fusion)
chain: QVQLQESGPGLVKPSQTLSLTCTVSGGSISSDAYYWSWIRQHPGKGLEWIGYMYYSGITYYNPSLKSRVTISVDTSKNQFSLKLSSVTAADTAVYYCARDFGWYFDLWGRGTLVTVSSGGGGSGGGGSGGGGSGGGGSDIQMTQSPSSLSASVGDRVTITCRASQDISNYLAWYQQKPGKVPKLLIYAASTLHSGVPSRFSGSGSGTDFTLTISSLQPDDFAAYYCQKYNSAPRTFGQGTKVEIK
notes: as for B1
- Kd: 27.3 nM
- koff: 0.00194 s⁻¹
- kon: 71200 M⁻¹ s⁻¹
- t1/2: 5.9 min

B3: P08E02 anti-CD70 scFv-Fc fusion (Fc fusion)
chain: EVQLVQSGAEVKKPGESLKISCKGSGYSFTSSWIGWVRQMPGKGLEWMGIIYPGDSDTRYSPSFQGQVTISADKSISTAYLQWSSLKASDTAMYYCAKGLSQAMTGFGFDYWGQGTLVTVSSGGGGSGGGGSGGGGSGGGGSELDIQMTQSPSSLSASVGDRVTITCRASQSISRYLNWYQQKPGKAPKLLIYAASILQTGVPSRFSGSGSGTDFTLTISSLQPEDFATYYCQQSYSTTMWTFGQGTKVEIK
notes: as for B1
- Kd: 5.3 nM
- koff: 0.00438 s⁻¹
- kon: 823000 M⁻¹ s⁻¹
- t1/2: 2.6 min

B4: 12D7 anti-CD70 scFv-Fc fusion (Fc fusion)
chain: QVQLVESGGGVVQPGRSLRLSCVASGFTFSDYGIHWVRQAPGMGQEWVAVIWYDGSIKKYSDSVKGRFIISRDNSENTVYLQMNSLRGEDTAIYYCARDEVGTFGAFDFWGQGTKVTVSSGGGGSGGGGSGGGGSGGGGSDIQLTQSPSFLSASVGDRVSITCRASQDISSFLAWYQQKPGKAPVLLIYVASTLQSGVPSRFSGSGSGTEFTLTVSSLQPEDFATYYCQQLHVYPITFGQGTRLEIR
notes: as for B1
- Kd: 1.7 nM
- koff: 0.000755 s⁻¹
- kon: 441000 M⁻¹ s⁻¹
- t1/2: 15.3 min

B6: 10A1 anti-CD70 scFv-Fc fusion (Fc fusion)
chain: QVQLQESGPGLVKPSETLSLTCTVSGGSISYYYWTWIRQPPGKGLEWIGHIYYSGSTNYNPSLKSRVTISIDTSKNLFSLKLSSVTAADTAVYYCARAEGSLDAFDFWGQGTMVTVSSGGGGSGGGGSGGGGSGGGGSDIQMTQSPSTLSASVGDRVTITCRASQSISTWLAWYQQKPGKAPKVLIYKASSLESGVPSRFSGSGSGTEFILTINSLQPDDFASYYCQQYKSYSHTFGQGTKLEIK
notes: as for B1
- Kd: 1.3 nM
- koff: 0.000773 s⁻¹
- kon: 577000 M⁻¹ s⁻¹
- t1/2: 14.9 min

B7: P08F08 anti-CD70 scFv-Fc fusion (Fc fusion)
chain: EVQLVQSGAEVKKPGESLKISCKGSGYGFTSYWIGWVRQMPGKGLEWMGIIHPDDSDTKYSPSFQGQVTISADKSISTAYLQWSSLKASDTAMYYCASSYLRGLWGGYFDYWGQGTLVTVSSGGGGSGGGGSGGGGSGGGGSELQSVLTQPPSASGTPGQRVTISCSGSSSNIGSNYVNWYQQLPGTAPKLLIYGDYQRPSGVPDRFSGSKSGTSASLAISGLRSEDEADYYCATRDDSLSGSVVFGTGTKLTVL
notes: as for B1
- Kd: 10.7 nM
- koff: 0.0153 s⁻¹
- kon: 1.44e+06 M⁻¹ s⁻¹
- t1/2: 0.8 min

B8: 10H10 anti-CD70 scFv-Fc fusion (Fc fusion)
chain: EVQLVESGGGLVQPGGSLRLSCAVSGFTFSNHNIHWVRQAPGKGLEWISYISRSSSTIYYADSVKGRFTISRDNAKNSLYLQMNSLRDEDTAVYYCARDHAQWYGMDVWGQGTTVTVSSGGGGSGGGGSGGGGSGGGGSDIQMTQSPSSVSASVGDRVTITCRASQGISSWLAWYQQKPGKAPKVLIYAASSLQSGVPSRFSGSGSGTDFTLTISSLQPEDFATYYCQQAFSFPFTFGPGTKVDIK
notes: as for B1
- Kd: 69.3 nM
- koff: 0.0032 s⁻¹
- kon: 46200 M⁻¹ s⁻¹
- t1/2: 3.6 min

B9: 11C1 anti-CD70 scFv-Fc fusion (Fc fusion)
chain: QVQLQESGPGLVKPSETLSLNCTVSGGSISYYYWTWIRQPPGKGLEWIGHVIYSGTTNYNPSLKSRVTISVDTSKNQFSLKLNSVTAADTAVYYCVRAEGSLDAFDLWGQGTMVTVSSGGGGSGGGGSGGGGSGGGGSDIQMTQSPSILSASVGDRVTITCRASQSVSSWLAWYQQKPGKAPKVLIYKASSLESGVPSRFSGTGSGTEFTLTISSLQSDDFATYYCQQYNTYSHTFGQGTKLEIK
notes: as for B1
- Kd: 0.8 nM
- koff: 0.000186 s⁻¹
- kon: 224000 M⁻¹ s⁻¹
- t1/2: 62.2 min

B10: P08G02 anti-CD70 scFv-Fc fusion (Fc fusion)
chain: EVQLVQSGAEVKKPGESLKISCKGSGYTFPSSWIGWVRQMPGKGLEWMGIIYPDTSHTRYSPSFQGQVTISADKSISTAYLQWSSLKASDTAMYYCARASYFDRGTGYSSWWMDVWGQGTLVTVSSGGGGSGGGGSGGGGSGGGGSELDIQMTQSPSSLSASVGDRVTITCRASQSIYDYLHWYQQKPGKAPKLLIYDASNLQSGVPSRFSGSGSGTDFTLTISSLQPEDFATYYCQQSYTTPLFTFGQGTKVEIK
notes: as for B1
- Kd: 330 nM
- koff: 0.00788 s⁻¹
- kon: 23900 M⁻¹ s⁻¹
- t1/2: 1.5 min

B14: P12B09 anti-CD70 scFv-Fc fusion (Fc fusion)
chain: EVQLLESGGGLVQPGGSLRLSCAASGFTFSQYSMSWVRQAPGKGLEWVSAISGGGVSTYYADSVKGRFTISRDNSKNTLYLQMNSLRAEDTAVYYCASDISDSGGSHWYFDYWGQGTLVTVSSGGGGSGGGGSGGGGSGGGGSELDIQMTQSPSSLSASVGDRVTITCRASQYIGRYLNWYQQKRGKAPKLLIHGATSLASGVPSRFSGSGSGTDFTLTISSLQPEDFATYYCQQSYSTTSPTFGQGTKVEIK
notes: as for B1
- Kd: 4.1 nM
- koff: 0.00135 s⁻¹
- kon: 330000 M⁻¹ s⁻¹
- t1/2: 8.6 min

Continued by falling Kd, values first:

- Kd: 15.4 nM
- koff: 0.00159 s⁻¹
- kon: 103000 M⁻¹ s⁻¹
- t1/2: 7.3 min
B11: 8C8 anti-CD70 scFv-Fc fusion (Fc fusion)
chain: EVQLVESGGGLVKPGGSLRLSCVASGFTFSSYSMNWVRQFPGKGLEWVSSISTSSNYIHYADSLQGRFTISRDNAKNSLYLQMSSLRVEDTAVYYCVRDKGTTLTNWYFDLWGRGTLVTVSSGGGGSGGGGSGGGGSGGGGSDMQMTQSPSSLSASVGDRVTLTCRASQGISNYLAWFQLKPGKVPKLLIYAASTLQSGVPSRFSGSGSGTDFALTISSLQPEDVATYYCQKYNSAPLTFGGGTKVEIK
notes: as for B1

- Kd: 2.6 nM
- koff: 0.00212 s⁻¹
- kon: 825000 M⁻¹ s⁻¹
- t1/2: 5.4 min
B15: 9E10 anti-CD70 scFv-Fc fusion (Fc fusion)
chain: QVQLVQSGAEVTKPGASVKVSCKASGYTFTSHYIYWVRQAPGQGLEWMGWINPNSGGTNYAQKFQDRVTMARDTSISTAYMELSRLRSDDTAVYYCAKDRKREYYYNFGMDVWGQGTTVTVSAGGGGSGGGGSGGGGSGGGGSDIQMTQSPSSLSASVGDRVILTCQASQDISNYLHWYQQKPGKAPKLLIYDASDLETGVPSRFSGSGSGADFTFTISNLQPEDFATYYCQQYDHLPITFGQGTRLEIK
notes: as for B1

- Kd: 1.9 nM
- koff: 0.0016 s⁻¹
- kon: 825000 M⁻¹ s⁻¹
- t1/2: 7.2 min
B5: 4F11 anti-CD70 scFv-Fc fusion (Fc fusion)
chain: QVTLKESGPVLVKPTETLTLTCTVSGFSLSNARMGVTWIRQPPGKALEWLAHIFSNDEKSYSTSLKSRLTISKDTSKTQVVLTMTNMDPVDTATYYCARIRDYYDISSYYDYWGQGTLVSVSSGGGGSGGGGSGGGGSGGGGSDIQMTQSPSAMSASVGDRVTITCRASQDISNYLAWFQQKPGKVPKRLIYAASSLQSGVPSRFSGSGSGTEFTLTISSLLPEDFATYYCLQLNSFPFTFGGGTKVEIN
notes: as for B1

- Kd: 1.7 nM
- koff: 0.001 s⁻¹
- kon: 578000 M⁻¹ s⁻¹
- t1/2: 11.6 min
B12: 11E1 anti-CD70 scFv-Fc fusion (Fc fusion)
chain: QVQLQESGPGLVKPLQTLSLTCTVSGGSISSDGYYWSWIRQNPGKGLEWIGYMYYSGSTYYNPSLKSRVTISVDTSKNQFSLKLRSVTAADTAVYYCTRDFGWYFDLWGRGTLVTVSSGGGGSGGGGSGGGGSGGGGSDIQMTQSPSSLSASVGDSITITCRASQDIDNYLAWYQQKTGKVPKVLIYAASALQSGVPSRFSGSGSGTDFTLTISSLQPEDVATYYCQNYNSGPRTFGQGTKVEIK
notes: as for B1

- Kd: 0.3 nM
- koff: 0.000455 s⁻¹
- kon: 1.56e+06 M⁻¹ s⁻¹
- t1/2: 25.3 min
B13: 12C4 anti-CD70 scFv-Fc fusion (Fc fusion)
chain: QVQLVQSGAEVKKPGASVKVSCKASGYTFTGYYLHWVRQAPGQGLEWMGWINPNSGGTNYAQKFQGRVTMTRDTSITTAYMELSRLRIDDTAVYYCARDRGVTMIVDGMDDWGQGTTVTVSSGGGGSGGGGSGGGGSGGGGSDIVMTQSPLSLPVTPGEPASISCRSSQSLLHSNGYNYLDWYLQKPGQSPQVLILLGSNRASGVPDRVSASGSGTDFTLKISRMQAEDVGIYYCMQTLQTPFTFGQGTKLEIK
notes: as for B1
